# Assay: soluble fraction after stress (log2 fold change); higher = more stays soluble; pooled small domains, quantitative proteomics
# Conditions: stress: pH 4
# Procedure, shortened: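 Pooled custom libraries of small protein domains were stressed at pH 4 and then measured by high-throughput quantitative proteomics. The fold change in the amount of each domain that stays soluble after the acid stress serves as a measure of aggregation propensity. Fold changes are given on a log2 scale, and higher values mean more of the domain stayed soluble.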
row,Sequence,soluble fraction (log2)
1,HMSEQLVGTVGHITVGTARTASPAEAKFLDAFEQPHYLLVEPIEPKDIFQQGDKVVLVKKQHHSWLATRYI,0.0779
2,HMGPPLISLDDGLAKGFGVGVGDTLTINILGRRITATIASLREIDWQSLRFDFAVVLSPGVLEGA,0.063
3,HMDQVLHQLVEVLRRSEIRISPAETLDAFKVLRNVGIDNKSLLREALALTLAKSIHEKIIFYETFDEFFT,-1.08
4,HMDSPVEEWANRGLAYDPSLVTETMAKLYAKQGQIGLARKAFKRLALIYPEKSVYFAFQLKKLSNN,0.0712
5,HMDKSPVLQLNRDVPAGQQISADDFRTVEIGADGAFRSVPSSDLNAMVGSYAKVRLIAGTLLAREALQSG,-0.0884
6,HMGGKWKAIIIYHLKNGPKRFGELRRALISSTETVLSNQLKQLEQDGLVSRQVFGTKPPLKTVYSLTDFG,-0.906
7,HMFDDEELDTFAGRQSDSYDQQEVEQFSDVLHTMRQDEVQAWWRSLTLRGISLPDELKDEVIML,-1.6
8,HMAPSLQISLKQAIITAQQQHPGSKALNADFDGARGTPRYVIETLLPTGELRELTIDAQSGQVMEDHPDR,0.198
9,HMNLGNLAYESKVTKQVLNMIRPLHPEYSSDDITRAVKEILSEEGSRQRRVDEIARGALDVLMGNPR,≥ 0.43
10,HMRIYFSPSEIGFYHESDKQAYLLAGTWPNDLLEISEKWFLYLLEGQQKGKVITVNDYDQPVLVD,-2.28
11,HMGNSRNDQDLQTQIIKILAEGPASSRTLIETLTIEDEAALLKTLKRLLMNKKISLTPSNLYKL,-0.66
12,HMAVEETFTITWLDRDGTVLEVDENVLKGTMPSFDGHIPPHDGLEFKGWDPEVVPVEGDATYTATYKA,-0.454
13,HMSEYIFGKNVVKEAFNNPSRIEEIYVLDKNMEFVSLAKKYHIKYTVITSSEMNKMVSGNHQGVVALVK,-0.264
14,HMRSLVDRSVQAVTDHIRENALRVGDSLPGEAYFATSLGVSRAVMREAFGALAALRVIDVGNGRKPRVGAI,-0.438
15,HMVPTATVGENTSTLPVRQLPGGPVLVVLVRGDIVLPLPGHAFQNGDVWREISTVNGVIGWVPDEFLDY,-1.3
16,HMGAQRDFELQLIDVIRQNPGLTYKAYGEKLSVSQATVKRLVAKLKETGSIRREGSQRKGTWIITDD,0.252
17,HMYVADVVGMGIKDALYILENQGLRVVFTGKGVVKNQSIAVGEKIIKGEKIVLML,-0.723
18,HMATPIAGTKYTLNNTPVYGTEKGPSIGKRSGIYYTWDATVRNGRIRMTNSPARVGVPWQVSFWVEVNKL,-0.195
19,HMGYQLSLEAQSQLKALGLTSEYITRILDEADNRQPIPGTSRTVYSLNGYQVEFSHSDQQVIRIARG,-0.262
20,HMLYEDVQVPNVRYWKSRDAKKQLEDLGLRVLTEHVNDAYIQSDQVIRTSPEIGDTLRTGDTVTLYVSDG,0.146
21,HMGITDHIYQDLKKRLENGNYPAGTRFPSESTLADEFSVNKMTMNKIVSMLAEQGYLIRGNRGAGTRVAEN,-0.0244
22,HMETAESLLRRLIMLEDPAMQNAMYVLAVMLERGKQLVERAAKPHESGGILRVYEHKKSGDTFVVLDPR,-1.05
23,HMSVTVPDVKRMQAEDAKALLSRYRLRSEVIDSVYVDNIPRGAVVEQIPRENSSVKENRIVFLTINSN,-0.546
24,HMTDVRFIDIPVTEHHPWNGMKVRDLQLPPGTLLVFLSHPGEKNTVPHGETVLRSGDVLVLGATAYTGQ,-0.681
25,HMHIDQVIRERRLALGLTQEELANKIGVSAPAVSKWEKRVSYPDITLLPALARILGTDVNTLLTFS,-0.309
26,HMAPDAPDGFVHRWIRAEMLGQEDKSNVHRRMQEGYELVRADEYPDSDLPVAEGRYAGIIGVGGLLLARF,-0.268
27,HMNLDPHVVGHRLRDLRTRRDLTLADVAAETDISVSTLSRLESGSRRATLELLVPLARTYRVTLDELVDA,-0.353
28,HMEDPRVTEIKNLQQDLAKKFKPTQGPASASDAVERVTAITTVMTKVAALPEDLRSEAMQPGKKM,-0.0985
29,HMSTANIVVPDVKGKTFEEAKKAIEAEGLTAKAEGDESGVVQKTSPSYGVSVESGSEVTLTLVKSDD,0.0493
30,HMSEQTLEDVRRLIEHLPESQKEVVKMRYYQDLSFKEIADLKGISINTALGRMHYAINNMRKMAKEYGL,-0.473

# Reference: the domain aggregation screens of Martell et al. (2025)
